This is an account of results in patent US20240092919A1.

Bounds are passed on as bounds.

Common to all, as to experiment: cell-based or functional assay
Assay [1] has as its target human GPC3 on cells (human) (UniProt P51654).
Assay [2] addresses Human T cell receptor on human primary T cells (human) (UniProt P01848).
Assay [3] deals with Cynomolgus T cell receptor on cynomolgus primary T cells (cynomolgus monkey).

Chain of Human T cell receptor on human primary T cells (human) (P01848 whole entry, chain 1 of 2): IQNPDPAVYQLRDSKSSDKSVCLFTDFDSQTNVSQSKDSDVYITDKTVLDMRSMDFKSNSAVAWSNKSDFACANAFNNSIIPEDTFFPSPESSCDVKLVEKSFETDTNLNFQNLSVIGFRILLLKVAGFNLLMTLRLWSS
Chain of Human T cell receptor on human primary T cells (human) (P01850 whole entry, chain 2 of 2, further chain): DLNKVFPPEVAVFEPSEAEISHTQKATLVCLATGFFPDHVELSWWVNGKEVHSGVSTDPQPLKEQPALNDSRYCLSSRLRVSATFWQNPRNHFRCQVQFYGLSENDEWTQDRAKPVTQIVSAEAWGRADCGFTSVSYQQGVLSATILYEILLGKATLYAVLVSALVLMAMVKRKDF

B1: A022600412 (protein)
chain: DVQLVESGGGVVQPGGSLRLSCVASGYVHKINFYGWYRQAPGKEREKVAHISIGDQTDYADSAKGRFTISRDESKNTVYLQMNSLRPEDTAAYYCRALSRIWPYDYWGQGTLVTVSSGGGGSEVQLVESGGGVVQPGGSLRLSCAASGFTFSSFAMTWVRRPPGKGLEWVATITNAGVTSYADSVKGRFTISRDNAKNTLYLQMNSLRPEDTALYICANARRTGPRAPTDIGSYRGQGTLVTVSSGGGGSGGGGSGGGGSGGGGSEVQLVESGGGVVQPGGSLRLSCAASGFTFRSFGMSWVRQAPGKGPEWVSSISGSGSDTLYADSVKGRFTISRDNSKNTLYLQMNSLRPEDTALYYCTIGGSLSRSSQGTLVTVSSA
Take B1: in assay [1], the IC50 (M) BxPC-3, xCELLigence human TDC assay, E:T 15:1, 60 h is > 1e-07 M; the IC50 (M) HepG2, xCELLigence human TDC assay, E:T 15:1, 60 h turned out to be 3.82e-10 M; the IC50 (M) Huh-7, xCELLigence human TDC assay, E:T 15:1, 60 h came to 1.53e-09 M; the IC50 (M) NCI-H661, xCELLigence human TDC assay, E:T 15:1, 60 h stood at 6.18e-10 M.

B2: T017000675 (bispecific antibody)
chain: DVQLVESGGGLVQAGGPLRLSCAASGRTFSSYVMGWFRQAPGKEREFVAAIYWSNGKTQYTDSVKGRFTISGDNAKNTVYLQMNSLNPEDTAVYYCVADKDETGFRTLPIAYDYWGQGTLVTVSSGGGGSGGGGSGGGGSGGGGSGGGGSGGGGSGGGGSEVQLVESGGGLVQAGGSLRLSCAASGITSKINDMGWYRQTPGNYREWVASITATGTTNYRDSVKGRFTISRDNAKSTVYLQMNSLKPEDTTVYYCNTFPPISNFWGQGTLVTVSSGGGGSGGGGSGGGGSGGGGSGGGGSGGGGSGGGGSEVQLVESGGGVVQPGGSLRLSCVASGYVHKINFYGWYRQAPGKEREKVAHISIGDQTDYADSAKGRFTISRDESKNTVYLQMNSLRPEDTALYYCRALSRIWPYDYWGQGTLVTVSSA
Take B2: in assay [2], the % lysis, KG-1a, Human T cell mediated killing worked out at 46%; the % lysis, MOLM-13, Human T cell mediated killing turned out to be 23%; the Average EC50 (M), KG-1a, Human T cell mediated killing came out at 9.2e-11 M; the Average EC50 (M), MOLM-13, Human T cell mediated killing amounted to 3.4e-11 M. Further, the IC50 (M), xCELLigence cell killing, Human T cell mediated killing, E:T 15:1 in assay [2] came out at 5e-11 M. For the same molecule, in assay [3], the % lysis, KG-1a, Cynomolgus T cell mediated killing stood at 26%; the % lysis, MOLM-13, Cynomolgus T cell mediated killing is 31%; the Average EC50 (M), KG-1a, Cynomolgus T cell mediated killing was 2.6e-11 M; the Average EC50 (M), MOLM-13, Cynomolgus T cell mediated killing turned out to be 6.9e-11 M.

B3: A022600425 (protein)
chain: DVQLVESGGGVVQPGGSLRLSCVASGYVHKINFYGWYRQAPGKEREKVAHISIGDQTDYADSAKGRFTISRDESKNTVYLQMNSLRPEDTAAYYCRALSRIWPYDYWGQGTLVTVSSGGGGSEVQLVESGGGVVQPGGSLRLSCAASGSIFRSVFSSSTMEWYRQAPGKKRELVARIAPGEGTYYGALYADSVKGRFTISRDNAKNTVYLQMNSLRPEDTALYYCASGVAWGQGTLVTVSSGGGGSGGGGSGGGGSGGGGSEVQLVESGGGVVQPGGSLRLSCAASGFTFSSFAMTWVRRPPGKGLEWVATITNAGVTSYADSVKGRFTISRDNAKNTLYLQMNSLRPEDTALYICANARRTGPRAPTDIGSYRGQGTLVTVSSGGGGSGGGSEVQLVESGGGVVQPGGSLRLSCAASGFTFRSFGMSWVRQAPGKGPEWVSSISGSGSDTLYADSVKGRFTISRDNSKNTLYLQMNSLRPEDTALYYCTIGGSLSRSSQGTLVTVSSA
With B3, in assay [1], the IC50 (M) BxPC-3, xCELLigence human TDC assay, E:T 15:1, 60 h was > 1e-07 M; the IC50 (M) HepG2, xCELLigence human TDC assay, E:T 15:1, 60 h came to 1.11e-10 M; the IC50 (M) Huh-7, xCELLigence human TDC assay, E:T 15:1, 60 h is 1.58e-10 M; the IC50 (M) NCI-H23, xCELLigence human TDC assay, E:T 15:1, 60 h is > 1e-07 M. In assay [1], this molecule gave an IC50 (M) NCI-H661, xCELLigence human TDC assay, E:T 15:1, 60 h of 2.59e-10 M.

B4: A022600426 (protein)
chain: DVQLVESGGGVVQPGGSLRLSCVASGYVHKINFYGWYRQAPGKEREKVAHISIGDQTDYADSAKGRFTISRDESKNTVYLQMNSLRPEDTAAYYCRALSRIWPYDYWGQGTLVTVSSGGGGSEVQLVESGGGVVQPGGSLRLSCAASGSIFRSVFSSSTMEWYRQAPGKKRELVARIAPGEGTYYGALYADSVKGRFTISRDNAKNTVYLQMNSLRPEDTALYYCASGVAWGQGTLVTVSSGGGGSGGGGSGGGGSGGGGSEVQLVESGGGVVQPGGSLRLSCAASGFTFSSFAMTWVRRPPGKGLEWVATITNKGVTSYADSVKGRFTISRDNAKNTLYLQMNSLRPEDTALYICANARRTGPRAPTDIGSYRGQGTLVTVSSGGGGSGGGSEVQLVESGGGVVQPGGSLRLSCAASGFTFRSFGMSWVRQAPGKGPEWVSSISGSGSDTLYADSVKGRFTISRDNSKNTLYLQMNSLRPEDTALYYCTIGGSLSRSSQGTLVTVSSA
B4: in assay [1], the IC50 (M) BxPC-3, xCELLigence human TDC assay, E:T 15:1, 60 h was > 1e-07 M; the IC50 (M) HepG2, xCELLigence human TDC assay, E:T 15:1, 60 h is 1.25e-10 M; the IC50 (M) Huh-7, xCELLigence human TDC assay, E:T 15:1, 60 h is 1.09e-10 M; the IC50 (M) NCI-H23, xCELLigence human TDC assay, E:T 15:1, 60 h is > 1e-07 M. This molecule also had an IC50 (M) NCI-H661, xCELLigence human TDC assay, E:T 15:1, 60 h in assay [1] of 2.64e-10 M.

B5: T017000139 (bispecific antibody)
chain: DVQLVESGGGLVQPGGSLRLSCVASGDVHKINFLGWYRQAPGKEREKVAHISIGDQTDYADSAKGRFTISRDESKNMVYLQMNSLKPEDTAVYFCRAFSRIYPYDYWGQGTLVTVSSGGGGSGGGGSGGGGSGGGGSGGGGSGGGGSGGGGSEVQLVESGGGLVQAGGPLRLSCAASGRTFSSYVMGWFRQAPGKEREFVAAIYWSNGKTQYTDSVKGRFTISGDNAKNTVYLQMNSLNPEDTAVYYCVADKDETGFRTLPIAYDYWGQGTLVTVSSGGGGSGGGGSGGGGSGGGGSGGGGSGGGGSGGGGSEVQLVESGGGLVQAGGSLRLSCAASGITSKINDMGWYRQTPGNYREWVASITATGTTNYRDSVKGRFTISRDNAKSTVYLQMNSLKPEDTTVYYCNTFPPISNFWGQGTLVTVSSA
In the case of B5, in assay [2], the % lysis, KG-1a, Human T cell mediated killing worked out at 51%; the % lysis, MOLM-13, Human T cell mediated killing is 25%; the Average EC50 (M), KG-1a, Human T cell mediated killing came to 7.8e-11 M; the Average EC50 (M), MOLM-13, Human T cell mediated killing turned out to be 2.5e-11 M. Moreover, the IC50 (M), xCELLigence cell killing, Human T cell mediated killing, E:T 15:1 in assay [2] is 4.7e-11 M. In assay [3], this molecule registered a % lysis, KG-1a, Cynomolgus T cell mediated killing of 26%; a % lysis, MOLM-13, Cynomolgus T cell mediated killing of 40%; an Average EC50 (M), KG-1a, Cynomolgus T cell mediated killing of 1.2e-11 M; an Average EC50 (M), MOLM-13, Cynomolgus T cell mediated killing of 7.2e-11 M.

B6: T017000670 (bispecific antibody)
chain: DVQLVESGGGVVQPGGSLRLSCVASGYVHKINFYGWYRQAPGKEREKVAHISIGDQTDYADSAKGRFTISRDESKNTVYLQMNSLRPEDTALYYCRALSRIWPYDYWGQGTLVTVSSGGGGSGGGGSGGGGSGGGGSGGGGSGGGGSGGGGSEVQLVESGGGLVQAGGPLRLSCAASGRTFSSYVMGWFRQAPGKEREFVAAIYWSNGKTQYTDSVKGRFTISGDNAKNTVYLQMNSLNPEDTAVYYCVADKDETGFRTLPIAYDYWGQGTLVTVSSGGGGSGGGGSGGGGSGGGGSGGGGSGGGGSGGGGSEVQLVESGGGLVQAGGSLRLSCAASGITSKINDMGWYRQTPGNYREWVASITATGTTNYRDSVKGRFTISRDNAKSTVYLQMNSLKPEDTTVYYCNTFPPISNFWGQGTLVTVSSA
In assay [2], B6 yielded a % lysis, KG-1a, Human T cell mediated killing of 52%; a % lysis, MOLM-13, Human T cell mediated killing of 26%; an Average EC50 (M), KG-1a, Human T cell mediated killing of 7.4e-11 M; an Average EC50 (M), MOLM-13, Human T cell mediated killing of 2.5e-11 M. For the same molecule, the IC50 (M), xCELLigence cell killing, Human T cell mediated killing, E:T 15:1 in assay [2] came to 9.4e-11 M. In addition, in assay [3], the % lysis, KG-1a, Cynomolgus T cell mediated killing was 30%; the % lysis, MOLM-13, Cynomolgus T cell mediated killing was found to be 34%; the Average EC50 (M), KG-1a, Cynomolgus T cell mediated killing came out at 8.1e-12 M; the Average EC50 (M), MOLM-13, Cynomolgus T cell mediated killing was determined as 2e-11 M.

B7: A022600427 (protein)
chain: DVQLVESGGGVVQPGGSLRLSCVASGYVHKINFYGWYRQAPGKEREKVAHISIGDQTDYADSAKGRFTISRDESKNTVYLQMNSLRPEDTAAYYCRALSRIWPYDYWGQGTLVTVSSGGGGSEVQLVESGGGVVQPGGSLRLSCAASGFTFSSFAMTWVRRPPGKGLEWVATITNAGVTSYADSVKGRFTISRDNAKNTLYLQMNSLRPEDTALYICANARRTGPRAPTDIGSYRGQGTLVTVSSGGGGSGGGSEVQLVESGGGVVQPGGSLRLSCAASGSIFRSVFSSSTMEWYRQAPGKKRELVARIAPGEGTYYGALYADSVKGRFTISRDNAKNTVYLQMNSLRPEDTALYYCASGVAWGQGTLVTVSSGGGGSGGGSEVQLVESGGGVVQPGGSLRLSCAASGFTFRSFGMSWVRQAPGKGPEWVSSISGSGSDTLYADSVKGRFTISRDNSKNTLYLQMNSLRPEDTALYYCTIGGSLSRSSQGTLVTVSSA
Take B7: in assay [1], the IC50 (M) BxPC-3, xCELLigence human TDC assay, E:T 15:1, 60 h is > 1e-07 M; the IC50 (M) HepG2, xCELLigence human TDC assay, E:T 15:1, 60 h is 1.03e-10 M; the IC50 (M) Huh-7, xCELLigence human TDC assay, E:T 15:1, 60 h was 1.37e-10 M; the IC50 (M) NCI-H23, xCELLigence human TDC assay, E:T 15:1, 60 h was > 1e-07 M. Moreover, in assay [1], the IC50 (M) NCI-H661, xCELLigence human TDC assay, E:T 15:1, 60 h was 1e-10 M.

B8: T017000671 (bispecific antibody)
chain: DVQLVESGGGLVQAGGSLRLSCAASGITSKINDMGWYRQTPGNYREWVASITATGTTNYRDSVKGRFTISRDNAKSTVYLQMNSLKPEDTTVYYCNTFPPISNFWGQGTLVTVSSGGGGSGGGGSGGGGSGGGGSGGGGSGGGGSGGGGSEVQLVESGGGVVQPGGSLRLSCVASGYVHKINFYGWYRQAPGKEREKVAHISIGDQTDYADSAKGRFTISRDESKNTVYLQMNSLRPEDTALYYCRALSRIWPYDYWGQGTLVTVSSGGGGSGGGGSGGGGSGGGGSGGGGSGGGGSGGGGSEVQLVESGGGLVQAGGPLRLSCAASGRTFSSYVMGWFRQAPGKEREFVAAIYWSNGKTQYTDSVKGRFTISGDNAKNTVYLQMNSLNPEDTAVYYCVADKDETGFRTLPIAYDYWGQGTLVTVSSA
In assay [2], B8 yielded a % lysis, KG-1a, Human T cell mediated killing of 21%; a % lysis, MOLM-13, Human T cell mediated killing of 14%; an Average EC50 (M), KG-1a, Human T cell mediated killing of 1.5e-10 M; an Average EC50 (M), MOLM-13, Human T cell mediated killing of 1.5e-10 M. In addition, in assay [3], the % lysis, MOLM-13, Cynomolgus T cell mediated killing was found to be 46% and the Average EC50 (M), MOLM-13, Cynomolgus T cell mediated killing is 2.1e-11 M.
